Experimental findings from patent publication US20240059789A1 (Janssen / Centocor, published 2024) are described below.

Test [1] has as its target Human PSMA on prostate cancer cell lines (C4-2B, 22RV1) (human, UniProt Q04609 1-750). Put plainly: cell-based or functional assay.
Test [2] concerns the target Human CD3 on T cells / Jurkat cells (human, UniProt P07766 23-207). The experiment in a line: cell-based or functional assay.

Human CD3 on T cells / Jurkat cells, sequence (P07766 23-207 limits assumed): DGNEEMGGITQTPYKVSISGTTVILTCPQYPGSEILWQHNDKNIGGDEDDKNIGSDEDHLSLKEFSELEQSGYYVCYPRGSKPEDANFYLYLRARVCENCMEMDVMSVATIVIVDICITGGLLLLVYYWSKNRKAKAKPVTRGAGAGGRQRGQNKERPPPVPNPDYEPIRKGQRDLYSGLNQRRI
Human PSMA on prostate cancer cell lines (C4-2B, 22RV1), sequence (Q04609 whole entry): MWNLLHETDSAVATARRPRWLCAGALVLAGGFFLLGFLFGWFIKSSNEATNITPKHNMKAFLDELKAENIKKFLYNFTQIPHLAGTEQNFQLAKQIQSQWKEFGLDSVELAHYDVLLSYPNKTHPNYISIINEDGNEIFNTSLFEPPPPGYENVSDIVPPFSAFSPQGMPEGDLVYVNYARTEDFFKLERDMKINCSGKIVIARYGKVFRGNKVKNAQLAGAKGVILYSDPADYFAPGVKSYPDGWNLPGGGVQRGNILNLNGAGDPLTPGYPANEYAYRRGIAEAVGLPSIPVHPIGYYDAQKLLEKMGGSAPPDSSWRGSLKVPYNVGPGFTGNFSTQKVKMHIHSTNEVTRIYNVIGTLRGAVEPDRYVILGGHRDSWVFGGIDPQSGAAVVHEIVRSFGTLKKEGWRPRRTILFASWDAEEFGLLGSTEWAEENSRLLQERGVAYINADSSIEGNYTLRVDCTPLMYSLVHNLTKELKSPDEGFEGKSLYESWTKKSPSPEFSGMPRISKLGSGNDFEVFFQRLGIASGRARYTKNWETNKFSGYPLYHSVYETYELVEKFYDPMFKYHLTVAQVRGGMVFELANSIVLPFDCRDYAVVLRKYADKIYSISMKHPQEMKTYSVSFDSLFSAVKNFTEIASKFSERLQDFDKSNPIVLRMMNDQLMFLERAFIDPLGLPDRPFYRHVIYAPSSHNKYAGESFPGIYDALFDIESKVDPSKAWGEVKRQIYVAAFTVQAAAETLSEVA

B1: PS3B919 (bispecific antibody, human IgG1, lambda, L234A L235A)
heavy 1: QVQLQQSGPRLVRPSQTLSLTCAISGDSVFNNNAAWSWIRQSPSRGLEWLGRTYYRSKWLYDYAVSVKSRITVNPDTSRNQFTLQLNSVTPEDTALYYCARGYSSSFDYWGQGTLVTVSSASTKGPSVFPLAPSSKSTSGGTAALGCLVKDYFPEPVTVSWNSGALTSGVHTFPAVLQSSGLYSLSSVVTVPSSSLGTQTYICNVNHKPSNTKVDKKVEPKSCDKTHTCPPCPAPEAAGGPSVFLFPPKPKDTLMISRTPEVTCVVVSVSHEDPEVKFNWYVDGVEVHNAKTKPREEQYNSTYRVVSVLTVLHQDWLNGKEYKCKVSNKALPAPIEKTISKAKGQPREPQVYTLPPSREEMTKNQVSLTCLVKGFYPSDIAVEWESNGQPENNYKTTPPVLDSDGSFLLYSKLTVDKSRWQQGNVFSCSVMHEALHNHYTQKSLSLSPG
light 1: QSALTQPASVSGSPGQSITISCTGTSSNIGTYKFVSWYQQHPDKAPKVLLYEVSKRPSGVSSRFSGSKSGNTASLTISGLQAEDQADYHCVSYAGSGTLLFGGGTKLTVLGQPKAAPSVTLFPPSSEELQANKATLVCLISDFYPGAVTVAWKADSSPVKAGVETTTPSKQSNNKYAASSYLSLTPEQWKSHRSYSCQVTHEGSTVEKTVAPTECS
heavy 2: EVQLVESGGGLVQPGGSLRLSCAASGFTFSSYAMSWVRQAPGKGLEWVSAISGGIGSTYYADSVKGRFTISRDNSKNTLWLQMNSLRAEDTAVYYCAKDGVGATPYYFDYWGQGTLVTVSSASTKGPSVFPLAPSSKSTSGGTAALGCLVKDYFPEPVTVSWNSGALTSGVHTFPAVLQSSGLYSLSSVVTVPSSSLGTQTYICNVNHKPSNTKVDKKVEPKSCDKTHTCPPCPAPEAAGGPSVFLFPPKPKDTLMISRTPEVTCVVVSVSHEDPEVKFNWYVDGVEVHNAKTKPREEQYNSTYRVVSVLTVLHQDWLNGKEYKCKVSNKALPAPIEKTISKAKGQPREPQVYTLPPSREEMTKNQVSLTCLVKGFYPSDIAVEWESNGQPENNYKTTPPVLDSDGSFFLYSRLTVDKSRWQQGNVFSCSVMHEALHNHYTQKSLSLSPG
light 2: QSVLTQPPSVSAAPGQKVTISCSGSSSNIGNNYVSWYQQLPGTAPKLLIYDNNKRPSGIPDRFSGSKSGTSATLGITGLQTGDEADYYCGTWDSSLSAYVFGTGTKVTVLGQPKAAPSVTLFPPSSEELQANKATLVCLISDFYPGAVTVAWKADSSPVKAGVETTTPSKQSNNKYAASSYLSLTPEQWKSHRSYSCQVTHEGSTVEKTVAPTECS
For the molecule B1, in test [1], the “Tumor killing EC50 [M] (C4-2B + PAN-T cells, 72 h, flow cytometry)” value (“Tumor killing EC50 [M]” for short) was determined as 2.1e-10 M. Also, the “T cell activation EC50 [M] (CD25+ T cells, C4-2B co-culture, 72 h)” value (shortened to “T cell activation EC50 [M]”) in test [2] stood at 1.87e-10 M.

B2: PS3B920 (bispecific antibody, human IgG1, lambda, L234A L235A)
heavy 1: QVQLQQSGPRLVRPSQTLSLTCAISGDSVFNNNAAWSWIRQSPSRGLEWLGRTYYRSKWLYDYAVSVKSRITVNPDTSRNQFTLQLNSVTPEDTALYYCARGYSSSFDYWGQGTLVTVSSASTKGPSVFPLAPSSKSTSGGTAALGCLVKDYFPEPVTVSWNSGALTSGVHTFPAVLQSSGLYSLSSVVTVPSSSLGTQTYICNVNHKPSNTKVDKKVEPKSCDKTHTCPPCPAPEAAGGPSVFLFPPKPKDTLMISRTPEVTCVVVSVSHEDPEVKFNWYVDGVEVHNAKTKPREEQYNSTYRVVSVLTVLHQDWLNGKEYKCKVSNKALPAPIEKTISKAKGQPREPQVYTLPPSREEMTKNQVSLTCLVKGFYPSDIAVEWESNGQPENNYKTTPPVLDSDGSFLLYSKLTVDKSRWQQGNVFSCSVMHEALHNHYTQKSLSLSPG
light 1: QSALTQPASVSGSPGQSITISCTGTSSNIGTYKFVSWYQQHPDKAPKVLLYEVSKRPSGVSSRFSGSKSGNTASLTISGLQAEDQADYHCVSYAGSGTLLFGGGTKLTVLGQPKAAPSVTLFPPSSEELQANKATLVCLISDFYPGAVTVAWKADSSPVKAGVETTTPSKQSNNKYAASSYLSLTPEQWKSHRSYSCQVTHEGSTVEKTVAPTECS
heavy 2: EVQLVESGGGLVQPGGSLRLSCAASGFTFSSYAMSWVRQAPGKGLEWVSAISGGSGSTYYADSVKGRFTISRDNSKNTLYLQMNSLRAEDSAVYYCAKDGVGATPYYFDYWGQGTLVTVSSASTKGPSVFPLAPSSKSTSGGTAALGCLVKDYFPEPVTVSWNSGALTSGVHTFPAVLQSSGLYSLSSVVTVPSSSLGTQTYICNVNHKPSNTKVDKKVEPKSCDKTHTCPPCPAPEAAGGPSVFLFPPKPKDTLMISRTPEVTCVVVSVSHEDPEVKFNWYVDGVEVHNAKTKPREEQYNSTYRVVSVLTVLHQDWLNGKEYKCKVSNKALPAPIEKTISKAKGQPREPQVYTLPPSREEMTKNQVSLTCLVKGFYPSDIAVEWESNGQPENNYKTTPPVLDSDGSFFLYSRLTVDKSRWQQGNVFSCSVMHEALHNHYTQKSLSLSPG
light 2: QSVLTQPPSVSAAPGQKVTISCSGSSSNIGNNYVSWYQQLPGTAPKLLIYDNNKRPSGIPDRFSGSKSGTSATLGITGLQTGDEADYYCGTWDSSLSAYVFGTGTKVTVLGQPKAAPSVTLFPPSSEELQANKATLVCLISDFYPGAVTVAWKADSSPVKAGVETTTPSKQSNNKYAASSYLSLTPEQWKSHRSYSCQVTHEGSTVEKTVAPTECS
On to B2, for which, in test [1], the “Tumor killing EC50 [M]” value amounted to 3.2e-09 M. Moreover, in test [2], the “T cell activation EC50 [M]” value was found to be 1.77e-09 M.

B3: PS3B912 (bispecific antibody, human IgG1, lambda, L234A L235A)
heavy 1: QVQLQQSGPRLVRPSQTLSLTCAISGDSVFNNNAAWSWIRQSPSRGLEWLGRTYYRSKWLYDYAVSVKSRITVNPDTSRNQFTLQLNSVTPEDTALYYCARGYSSSFDYWGQGTLVTVSSASTKGPSVFPLAPSSKSTSGGTAALGCLVKDYFPEPVTVSWNSGALTSGVHTFPAVLQSSGLYSLSSVVTVPSSSLGTQTYICNVNHKPSNTKVDKKVEPKSCDKTHTCPPCPAPEAAGGPSVFLFPPKPKDTLMISRTPEVTCVVVSVSHEDPEVKFNWYVDGVEVHNAKTKPREEQYNSTYRVVSVLTVLHQDWLNGKEYKCKVSNKALPAPIEKTISKAKGQPREPQVYTLPPSREEMTKNQVSLTCLVKGFYPSDIAVEWESNGQPENNYKTTPPVLDSDGSFLLYSKLTVDKSRWQQGNVFSCSVMHEALHNHYTQKSLSLSPG
light 1: QSALTQPASVSGSPGQSITISCTGTSSNIGTYKFVSWYQQHPDKAPKVLLYEVSKRPSGVSSRFSGSKSGNTASLTISGLQAEDQADYHCVSYAGSGTLLFGGGTKLTVLGQPKAAPSVTLFPPSSEELQANKATLVCLISDFYPGAVTVAWKADSSPVKAGVETTTPSKQSNNKYAASSYLSLTPEQWKSHRSYSCQVTHEGSTVEKTVAPTECS
heavy 2: EVQLVESGGGLVQPGGSLRLSCTASGFIFSSYAMSWVRQAPGKGLEWVSAISGGYGAPYYADTVKGRFTISRDNSKNTLYLQMNSLRAEDTAVYYCAKDGVGATPYYFDDWGQGILVTVSSASTKGPSVFPLAPSSKSTSGGTAALGCLVKDYFPEPVTVSWNSGALTSGVHTFPAVLQSSGLYSLSSVVTVPSSSLGTQTYICNVNHKPSNTKVDKKVEPKSCDKTHTCPPCPAPEAAGGPSVFLFPPKPKDTLMISRTPEVTCVVVSVSHEDPEVKFNWYVDGVEVHNAKTKPREEQYNSTYRVVSVLTVLHQDWLNGKEYKCKVSNKALPAPIEKTISKAKGQPREPQVYTLPPSREEMTKNQVSLTCLVKGFYPSDIAVEWESNGQPENNYKTTPPVLDSDGSFFLYSRLTVDKSRWQQGNVFSCSVMHEALHNHYTQKSLSLSPG
light 2: QSVLTQPPSVSAAPGQKVTISCSGSSSNIGNNYVSWYQQLPGTAPKLLIFDNNKRPSGIPDRFSGSKSGTSATLGITGLQTGDEADYYCGTWDSSLSAYVFGTGTKVTVLGQPKAAPSVTLFPPSSEELQANKATLVCLISDFYPGAVTVAWKADSSPVKAGVETTTPSKQSNNKYAASSYLSLTPEQWKSHRSYSCQVTHEGSTVEKTVAPTECS
On to B3, for which the “Tumor killing EC50 [M]” value in test [1] is 6.51e-11 M. Further, in test [2], the “T cell activation EC50 [M]” value was 4.73e-11 M.

B4: PS3B930 (bispecific antibody, human IgG1, kappa, lambda, L234A L235A)
heavy 1: EVQLVESGGGLVKPGGSLRLSCAASGFTFSRYNMNWVRQAPGKGLEWVSSISTSSNYIYYADSVKGRFTFSRDNAKNSLDLQMSGLRAEDTAIYYCTRGWGPFDYWGQGTLVTVSSASTKGPSVFPLAPSSKSTSGGTAALGCLVKDYFPEPVTVSWNSGALTSGVHTFPAVLQSSGLYSLSSVVTVPSSSLGTQTYICNVNHKPSNTKVDKKVEPKSCDKTHTCPPCPAPEAAGGPSVFLFPPKPKDTLMISRTPEVTCVVVSVSHEDPEVKFNWYVDGVEVHNAKTKPREEQYNSTYRVVSVLTVLHQDWLNGKEYKCKVSNKALPAPIEKTISKAKGQPREPQVYTLPPSREEMTKNQVSLTCLVKGFYPSDIAVEWESNGQPENNYKTTPPVLDSDGSFLLYSKLTVDKSRWQQGNVFSCSVMHEALHNHYTQKSLSLSP
light 1: DIQMTQSPSSLSASVGDRVTITCRARQSIGTAIHWYQQKPGKAPKLLIKYASESISGVPSRFSGSGSGTDFTLTISSLQPEDFATYYCQQSGSWPYTFGQGTKLEIKRTVAAPSVFIFPPSDEQLKSGTASVVCLLNNFYPREAKVQWKVDNALQSGNSQESVTEQDSKDSTYSLSSTLTLSKADYEKHKVYACEVTHQGLSSPVTKSFNRGEC
heavy 2: EVQLVESGGGLVKPGGSLRLSCAASGFTFSRYNMNWVRQAPGKGLEWVSSINSNSRYIYYADSVKGRFTISRDSAKNSLYLQMNSLRAEDTAVYYCAKTMGDYYYYYGMDVWGQGTTVTVSSASTKGPSVFPLAPSSKSTSGGTAALGCLVKDYFPEPVTVSWNSGALTSGVHTFPAVLQSSGLYSLSSVVTVPSSSLGTQTYICNVNHKPSNTKVDKKVEPKSCDKTHTCPPCPAPEAAGGPSVFLFPPKPKDTLMISRTPEVTCVVVSVSHEDPEVKFNWYVDGVEVHNAKTKPREEQYNSTYRVVSVLTVLHQDWLNGKEYKCKVSNKALPAPIEKTISKAKGQPREPQVYTLPPSREEMTKNQVSLTCLVKGFYPSDIAVEWESNGQPENNYKTTPPVLDSDGSFFLYSRLTVDKSRWQQGNVFSCSVMHEALHNHYTQKSLSLSPG
light 2: QSVLTQPPSVSGAPGQRVTISCTGSSFNLGAGYDVHWYQQVPGTVPKLLIYDNSNRPSGVPDRFSGSKSGTSASLAITGLQAEDETVYYCQSYDSSLSGVVFGGGTKLTVLGQPKAAPSVTLFPPSSEELQANKATLVCLISDFYPGAVTVAWKADSSPVKAGVETTTPSKQSNNKYAASSYLSLTPEQWKSHRSYSCQVTHEGSTVEKTVAPTECS
For B4, the “T cell activation EC50 [M]” value in test [2] was 2.4e-12 M.
